Data as given in paper PMC12109034.
Blank lines part the entries; values can stand above or below the molecule they belong to.

Experiments:
[1] = molecular target: TdPP1-T243M (durum wheat)
[2] = molecular target: 6xHis::TdPP1a (durum wheat)
[3] = molecular target: TdPP1-H135A (durum wheat)
[4] = molecular target: 6xHis::TdPP1a (durum wheat); remark: listed apart in the source
[5] = molecular target: TdPP1-H135A (durum wheat); remark: listed apart in the source
[6] = molecular target: TdPP1-H135A (durum wheat); remark: listed apart in the source

IC50 of inhibition of phosphatase activity (pNPP substrate, 37 °C, 1 μg enzyme) [1]: 35.6 nM | IC50 of inhibition of phosphatase activity (pNPP substrate, 37 °C, 1 μg enzyme) [2]: 32 nM | IC50 of inhibition of phosphatase activity (pNPP substrate, 37 °C, 1 μg enzyme) [3]: 37 nM | percent inhibition of phosphatase activity (pNPP) at three TdRL1 concentrations; 59% at 26 nM (1:1 molar ratio), highest value at the higher concentration [4]: 89.7% | percent inhibition of phosphatase activity (pNPP) by TdRL1 at three concentrations; value at high concentrations [5]: 91%
Molecule: 6xHis-MBP::TdRL1 (natural protein)

percent inhibition of phosphatase activity (pNPP) at three At-I2 concentrations; maximum at the highest concentration used [4]: 90.4% | percent inhibition of phosphatase activity (pNPP) by At-I2 at three concentrations; highest at high concentration [6]: 100%
B1: GST::At-I2 (natural protein)
chain: MTEPKRGRVQWDEANIVEIESNKPVRQKITEPKTPYHPMMDDDGSLSPRGRAFDECVDDMQRAEELRNVLNDAAASSSRNSSQGSGGGGWSSSDEEEEEADPMDQDEEGSGSGKNERFNAHRKAHYDEFRKVKELRSSGSFYEEEEEEDDGAKGSKSETTTNSRHTKGGNKELDATKTVSGTSSSSSPELI
